The results in this text go back to patent publication US20160200782A1 (MOERAE MATRIX, published 2016).

Among the targets are MSSK1(h) (human, UniProt Q9UPE1 1-567, limits assumed); Fyn(h) (human, UniProt P06241 1-537, limits assumed); Src(1-530)(h) (human, UniProt P12931 1-530); FGFR3(h) (human, UniProt P22607 397-806); MSK1(h) (human, UniProt O75582 1-802, limits assumed); PAK4(h) (human, UniProt O96013 1-591, limits assumed); Ros(h) (human, UniProt P08922 1883-2347, limits assumed); Snk(h) (human, UniProt Q9NYY3 1-685, limits assumed); Met(D1246N)(h) (human, UniProt P08581-2 974-1408, limits assumed).

What all share (test): cell-based or functional assay
Another test concerns the target T1, DCAMKL2(h) (human, UniProt Q8N568 372-766, limits assumed).
T1 sequence (looked up): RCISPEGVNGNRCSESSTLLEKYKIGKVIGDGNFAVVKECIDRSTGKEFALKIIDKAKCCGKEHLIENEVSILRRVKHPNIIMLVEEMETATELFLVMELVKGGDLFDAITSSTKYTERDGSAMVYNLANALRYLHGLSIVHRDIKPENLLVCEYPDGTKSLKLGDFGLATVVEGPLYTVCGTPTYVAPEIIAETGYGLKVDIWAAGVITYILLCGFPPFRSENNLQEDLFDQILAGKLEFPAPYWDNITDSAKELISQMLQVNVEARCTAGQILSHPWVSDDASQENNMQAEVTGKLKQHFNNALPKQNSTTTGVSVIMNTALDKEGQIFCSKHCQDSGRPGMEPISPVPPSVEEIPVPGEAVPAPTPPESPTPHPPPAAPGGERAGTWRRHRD

The target of another test is T2, Flt3(D835Y)(h) (human, UniProt P36888 564-993, limits assumed).
T2 sequence (looked up): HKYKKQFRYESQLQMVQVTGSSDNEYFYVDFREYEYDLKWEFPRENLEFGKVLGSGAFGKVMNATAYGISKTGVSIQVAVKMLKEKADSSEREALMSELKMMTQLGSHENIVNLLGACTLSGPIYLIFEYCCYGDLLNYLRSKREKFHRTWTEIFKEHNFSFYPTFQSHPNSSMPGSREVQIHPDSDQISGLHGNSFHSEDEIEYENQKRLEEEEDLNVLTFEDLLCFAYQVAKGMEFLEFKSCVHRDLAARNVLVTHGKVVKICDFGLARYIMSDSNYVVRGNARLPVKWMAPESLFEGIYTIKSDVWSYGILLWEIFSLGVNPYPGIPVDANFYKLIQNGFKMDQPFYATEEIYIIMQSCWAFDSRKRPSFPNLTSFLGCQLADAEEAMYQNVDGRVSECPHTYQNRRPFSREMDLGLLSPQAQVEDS

The target in a further test is T3, EphA8(h) (human, UniProt P29322 564-1005, limits assumed).
T3 sequence (looked up): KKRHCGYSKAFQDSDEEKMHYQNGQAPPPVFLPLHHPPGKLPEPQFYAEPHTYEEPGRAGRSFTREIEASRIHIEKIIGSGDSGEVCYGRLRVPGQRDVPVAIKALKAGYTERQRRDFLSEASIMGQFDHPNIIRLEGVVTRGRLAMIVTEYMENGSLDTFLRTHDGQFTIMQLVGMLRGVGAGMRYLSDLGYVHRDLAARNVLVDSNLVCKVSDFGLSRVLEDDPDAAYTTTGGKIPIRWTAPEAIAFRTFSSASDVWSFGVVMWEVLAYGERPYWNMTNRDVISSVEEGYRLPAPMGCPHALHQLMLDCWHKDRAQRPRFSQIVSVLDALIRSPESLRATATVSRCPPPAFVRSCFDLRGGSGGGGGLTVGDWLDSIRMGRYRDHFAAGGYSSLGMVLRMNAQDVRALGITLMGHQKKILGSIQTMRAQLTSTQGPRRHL

The target of a further test is T4, Ret(V804M)(h) (human, UniProt P07949 658-1114, limits assumed).
T4 sequence (looked up): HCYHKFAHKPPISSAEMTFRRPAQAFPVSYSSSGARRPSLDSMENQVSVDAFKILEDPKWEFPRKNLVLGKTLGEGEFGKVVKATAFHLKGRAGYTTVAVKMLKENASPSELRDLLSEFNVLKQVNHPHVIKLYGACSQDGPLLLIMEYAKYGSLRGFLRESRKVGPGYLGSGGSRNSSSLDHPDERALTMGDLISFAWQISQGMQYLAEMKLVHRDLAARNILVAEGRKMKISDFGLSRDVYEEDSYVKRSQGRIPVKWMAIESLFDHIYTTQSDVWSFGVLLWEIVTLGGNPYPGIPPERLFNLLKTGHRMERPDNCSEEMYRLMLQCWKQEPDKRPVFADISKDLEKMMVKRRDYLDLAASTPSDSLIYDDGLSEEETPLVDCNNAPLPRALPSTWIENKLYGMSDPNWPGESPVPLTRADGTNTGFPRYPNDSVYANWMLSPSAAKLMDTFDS

Another test has as its target T5, Ret(V804L)(h) (human, UniProt P07949 658-1114, limits assumed).
T5 sequence (looked up): T4 sequence (looked up) with M147L

Numbering of substitutions follows the chain as printed.

Chain of MSSK1(h) (Q9UPE1 whole entry): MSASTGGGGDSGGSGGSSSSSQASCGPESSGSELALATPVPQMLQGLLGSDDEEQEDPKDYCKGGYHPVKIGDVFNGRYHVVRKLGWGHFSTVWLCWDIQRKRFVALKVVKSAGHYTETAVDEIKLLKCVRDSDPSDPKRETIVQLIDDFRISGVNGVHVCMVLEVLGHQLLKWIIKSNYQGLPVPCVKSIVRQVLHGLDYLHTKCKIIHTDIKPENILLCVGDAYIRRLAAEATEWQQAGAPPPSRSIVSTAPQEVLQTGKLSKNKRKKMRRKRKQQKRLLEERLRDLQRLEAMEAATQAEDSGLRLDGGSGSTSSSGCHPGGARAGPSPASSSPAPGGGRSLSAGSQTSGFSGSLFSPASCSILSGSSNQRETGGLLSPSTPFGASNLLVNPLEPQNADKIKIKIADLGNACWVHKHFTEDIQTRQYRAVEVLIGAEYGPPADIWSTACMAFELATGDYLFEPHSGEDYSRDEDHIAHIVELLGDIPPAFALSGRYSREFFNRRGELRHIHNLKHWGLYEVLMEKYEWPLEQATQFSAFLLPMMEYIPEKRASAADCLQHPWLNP
Chain of Ros(h) (P08922 1883-2347 limits assumed): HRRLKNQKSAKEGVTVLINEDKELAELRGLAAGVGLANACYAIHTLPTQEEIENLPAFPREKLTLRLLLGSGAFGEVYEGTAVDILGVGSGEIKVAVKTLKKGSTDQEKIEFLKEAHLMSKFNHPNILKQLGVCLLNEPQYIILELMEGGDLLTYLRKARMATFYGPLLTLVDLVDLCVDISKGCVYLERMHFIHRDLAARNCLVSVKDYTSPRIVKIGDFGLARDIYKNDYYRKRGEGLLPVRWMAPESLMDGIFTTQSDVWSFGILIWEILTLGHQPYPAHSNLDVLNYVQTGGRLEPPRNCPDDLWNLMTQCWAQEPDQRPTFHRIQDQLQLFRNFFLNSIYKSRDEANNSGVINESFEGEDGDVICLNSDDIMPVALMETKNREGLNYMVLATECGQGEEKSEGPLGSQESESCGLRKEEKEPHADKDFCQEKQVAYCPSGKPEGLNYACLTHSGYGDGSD
Chain of FGFR3(h) (P22607 397-806 limits assumed): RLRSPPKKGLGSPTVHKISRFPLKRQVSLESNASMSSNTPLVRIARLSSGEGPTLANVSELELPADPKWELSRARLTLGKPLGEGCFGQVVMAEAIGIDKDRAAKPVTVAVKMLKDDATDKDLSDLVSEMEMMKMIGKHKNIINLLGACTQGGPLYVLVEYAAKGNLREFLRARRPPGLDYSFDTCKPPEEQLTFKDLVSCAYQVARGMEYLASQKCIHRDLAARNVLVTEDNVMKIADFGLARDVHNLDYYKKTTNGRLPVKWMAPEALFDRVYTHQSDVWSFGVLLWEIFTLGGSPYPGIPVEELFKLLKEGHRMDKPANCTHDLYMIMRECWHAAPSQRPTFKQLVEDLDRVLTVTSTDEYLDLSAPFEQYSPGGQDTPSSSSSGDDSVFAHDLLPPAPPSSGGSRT
Chain of Fyn(h) (P06241 whole entry): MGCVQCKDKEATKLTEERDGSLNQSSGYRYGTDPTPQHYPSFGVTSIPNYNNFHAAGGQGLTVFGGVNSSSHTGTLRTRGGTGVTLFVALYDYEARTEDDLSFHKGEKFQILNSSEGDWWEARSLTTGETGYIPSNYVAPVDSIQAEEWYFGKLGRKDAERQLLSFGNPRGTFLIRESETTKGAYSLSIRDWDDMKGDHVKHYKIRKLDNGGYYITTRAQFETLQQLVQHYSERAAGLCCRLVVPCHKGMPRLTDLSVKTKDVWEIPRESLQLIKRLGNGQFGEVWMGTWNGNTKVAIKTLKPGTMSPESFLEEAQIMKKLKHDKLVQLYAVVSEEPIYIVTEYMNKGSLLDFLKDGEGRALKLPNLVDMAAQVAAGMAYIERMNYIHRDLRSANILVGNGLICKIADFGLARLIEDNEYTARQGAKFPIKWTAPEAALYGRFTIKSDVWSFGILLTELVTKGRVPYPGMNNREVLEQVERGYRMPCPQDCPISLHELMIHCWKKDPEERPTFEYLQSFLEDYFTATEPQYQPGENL
Chain of MSK1(h) (O75582 whole entry): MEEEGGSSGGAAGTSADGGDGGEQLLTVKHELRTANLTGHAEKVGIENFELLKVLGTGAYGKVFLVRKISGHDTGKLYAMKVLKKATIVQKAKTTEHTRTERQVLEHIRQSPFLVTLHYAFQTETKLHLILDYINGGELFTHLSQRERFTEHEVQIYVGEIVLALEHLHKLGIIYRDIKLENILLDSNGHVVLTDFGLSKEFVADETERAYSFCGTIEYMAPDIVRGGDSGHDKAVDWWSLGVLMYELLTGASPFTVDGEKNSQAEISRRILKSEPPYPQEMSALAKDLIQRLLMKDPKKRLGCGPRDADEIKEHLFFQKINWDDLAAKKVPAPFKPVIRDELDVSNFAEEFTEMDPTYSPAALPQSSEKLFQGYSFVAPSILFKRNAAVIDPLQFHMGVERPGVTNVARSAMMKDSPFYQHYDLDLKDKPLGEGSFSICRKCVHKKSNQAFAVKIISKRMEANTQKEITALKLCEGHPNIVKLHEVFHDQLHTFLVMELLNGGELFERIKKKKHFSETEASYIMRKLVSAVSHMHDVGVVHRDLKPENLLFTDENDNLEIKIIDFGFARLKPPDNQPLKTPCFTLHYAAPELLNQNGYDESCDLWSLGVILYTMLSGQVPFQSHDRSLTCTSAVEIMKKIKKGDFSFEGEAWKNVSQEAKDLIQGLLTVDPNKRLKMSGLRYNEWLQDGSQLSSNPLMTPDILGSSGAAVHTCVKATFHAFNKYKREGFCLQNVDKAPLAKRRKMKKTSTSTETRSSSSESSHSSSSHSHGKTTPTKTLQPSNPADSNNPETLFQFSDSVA
Chain of PAK4(h) (O96013 whole entry): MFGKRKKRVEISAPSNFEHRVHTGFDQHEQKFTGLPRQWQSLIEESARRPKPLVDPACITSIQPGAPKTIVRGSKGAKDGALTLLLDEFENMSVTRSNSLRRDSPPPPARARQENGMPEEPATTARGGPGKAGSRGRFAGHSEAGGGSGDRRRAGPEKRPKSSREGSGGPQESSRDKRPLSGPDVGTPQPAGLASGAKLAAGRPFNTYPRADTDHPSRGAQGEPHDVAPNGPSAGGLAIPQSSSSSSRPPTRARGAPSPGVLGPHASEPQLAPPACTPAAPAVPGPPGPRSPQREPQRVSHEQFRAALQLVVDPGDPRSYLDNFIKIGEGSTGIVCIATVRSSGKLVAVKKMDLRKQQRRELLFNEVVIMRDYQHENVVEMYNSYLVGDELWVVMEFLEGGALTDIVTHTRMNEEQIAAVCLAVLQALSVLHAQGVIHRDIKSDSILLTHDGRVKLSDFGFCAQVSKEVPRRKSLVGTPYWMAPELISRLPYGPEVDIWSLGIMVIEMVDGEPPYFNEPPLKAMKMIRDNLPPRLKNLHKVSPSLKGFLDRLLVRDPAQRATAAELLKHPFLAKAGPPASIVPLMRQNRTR
Chain of Snk(h) (Q9NYY3 whole entry): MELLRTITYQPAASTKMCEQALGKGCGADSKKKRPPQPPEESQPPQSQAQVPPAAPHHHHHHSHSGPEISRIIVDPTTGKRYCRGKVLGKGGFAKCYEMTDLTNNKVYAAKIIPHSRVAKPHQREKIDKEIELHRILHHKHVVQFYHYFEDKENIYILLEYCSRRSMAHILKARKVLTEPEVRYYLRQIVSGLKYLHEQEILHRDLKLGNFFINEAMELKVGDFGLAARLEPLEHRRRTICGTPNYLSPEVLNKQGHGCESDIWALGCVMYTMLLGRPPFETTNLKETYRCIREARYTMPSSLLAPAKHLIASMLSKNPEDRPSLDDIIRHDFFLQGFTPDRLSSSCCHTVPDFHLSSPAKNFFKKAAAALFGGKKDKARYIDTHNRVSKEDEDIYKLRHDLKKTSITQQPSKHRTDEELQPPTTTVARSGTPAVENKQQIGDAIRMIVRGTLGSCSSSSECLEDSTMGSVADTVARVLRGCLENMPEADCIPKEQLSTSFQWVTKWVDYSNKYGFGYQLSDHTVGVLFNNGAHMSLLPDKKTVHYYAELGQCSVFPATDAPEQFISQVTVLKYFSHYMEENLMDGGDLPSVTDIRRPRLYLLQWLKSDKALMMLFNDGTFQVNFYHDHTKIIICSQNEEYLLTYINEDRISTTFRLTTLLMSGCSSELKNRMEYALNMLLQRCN

B1: MMI-0300 (peptide)
peptide: FAKLAARLYRKALARQLGVAA
For B1, the “% activity” value came to 77% with MSSK1(h); 74% in the test with Fyn(h); 81% with DCAMKL2(h); 23% with Src(1-530)(h); 102% with FGFR3(h); 32% with MSK1(h). In addition, the “% activity” value with PAK4(h) worked out at 94%; in the test with Flt3(D835Y)(h), 80%; with EphA8(h) it was 93%; in the test with Ros(h), 95%; in the test with Ret(V804M)(h), 95%; with Snk(h), 114%. For the same molecule, the “% activity” value with Met(D1246N)(h) was 82%; with Ret(V804L)(h), 79%.

B2: MMI-0400 (peptide)
peptide: KAFAKLAARLYRKALARQLGVAA
For the molecule B2, the “% activity” value in the test with MSSK1(h) amounted to 75%; with Fyn(h) it was 54%; in the test with DCAMKL2(h), 70%; with Src(1-530)(h) it was 19%; in the test with FGFR3(h), 0%; in the test with MSK1(h) it was 28%. Also, the “% activity” value in the test with PAK4(h) turned out to be 89%; in the test with Flt3(D835Y)(h), 71%; with EphA8(h), 146%; with Ros(h), 99%; with Ret(V804M)(h) it was 87%; with Snk(h), 131%. Also, the “% activity” value with Met(D1246N)(h) worked out at 31%; with Ret(V804L)(h), 73%.
